Measured values reported in patent publication US20230365701A1 (Pfizer, published 2023).

B1: 1E01 tetravalent antibody (antibody, human IgG1, kappa)
heavy: QVQLVQSGAEVKKPGSSVKVSCKASGGTFSSYFWSWVRQAPGQGLEWMGRFYSGGSANYNPSLKERVTITADESTSTAYMELSSLRSEDTAVYYCARERRGYSGGFEIWGQGTLVTVSSASTKGPSVFPLAPSSKSTSGGTAALGCLVKDYFPEPVTVSWNSGALTSGVHTFPAVLQSSGLYSLSSVVTVPSSSLGTQTYICNVNHKPSNTKVDKKVEPKSCGGGGSQVQLVQSGAEVKKPGSSVKVSCKASGGTFSSYFWSWVRQAPGQGLEWMGRFYSGGSANYNPSLKERVTITADESTSTAYMELSSLRSEDTAVYYCARERRGYSGGFEIWGQGTLVTVSSASTKGPSVFPLAPSSKSTSGGTAALGCLVKDYFPEPVTVSWNSGALTSGVHTFPAVLQSSGLYSLSSVVTVPSSSLGTQTYICNVNHKPSNTKVDKKVEPKSCDKTHTCPPCPAPEAAGAPSVFLFPPKPKDTLMISRTPEVTCVVVDVSHEDPEVKFNWYVDGVEVHNAKTKPREEQYNSTYRVVSVLTVLHQDWLNGKEYKCKVSNKALPAPIEKTISKAKGQPREPQVYTLPPSREEMTKNQVSLTCLVKGFYPSDIAVEWESNGQPENNYKTTPPVLDSDGSFFLYSKLTVDKSRWQQGNVFSCSVMHEALHNHYTQKSLSLSPGK
light: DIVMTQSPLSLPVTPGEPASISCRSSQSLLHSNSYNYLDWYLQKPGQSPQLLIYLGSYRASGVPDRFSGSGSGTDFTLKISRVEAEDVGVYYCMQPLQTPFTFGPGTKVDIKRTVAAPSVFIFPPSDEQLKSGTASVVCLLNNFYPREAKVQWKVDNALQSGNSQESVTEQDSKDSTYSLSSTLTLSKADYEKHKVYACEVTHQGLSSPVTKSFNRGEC
notes: Extended heavy chain VH-CH1-linker-VH-CH1-hinge-CH2-CH3; AF647-labeled in the flow cytometry assay; also called tetravalent 1E01
B2: anti-LTBR clone 1E01 (Fab clone "1E01") (Fab, V domains shown)
VH: QVQLVQSGAEVKKPGSSVKVSCKASGGTFSSYFWSWVRQAPGQGLEWMGRFYSGGSANYNPSLKERVTITADESTSTAYMELSSLRSEDTAVYYCARERRGYSGGFEIWGQGTLVTVSS
VL: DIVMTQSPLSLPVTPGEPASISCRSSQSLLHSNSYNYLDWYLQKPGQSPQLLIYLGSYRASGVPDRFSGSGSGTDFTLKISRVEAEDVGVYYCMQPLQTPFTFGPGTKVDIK
notes: Only VH and VL are tied to the clone; also called 1E01 antibody

Legend:
[1] = biological target: chimeric LTBR with a human extracellular domain and mouse transmembrane and intracellular domains, on CT26 … (human; mouse); experiment: cell-based or functional assay
chimeric LTBR with a human extracellular domain and mouse transmembrane and intracellular domains, on CT26 … (human; mouse), sequence (chain, as listed by the source mutant limits assumed): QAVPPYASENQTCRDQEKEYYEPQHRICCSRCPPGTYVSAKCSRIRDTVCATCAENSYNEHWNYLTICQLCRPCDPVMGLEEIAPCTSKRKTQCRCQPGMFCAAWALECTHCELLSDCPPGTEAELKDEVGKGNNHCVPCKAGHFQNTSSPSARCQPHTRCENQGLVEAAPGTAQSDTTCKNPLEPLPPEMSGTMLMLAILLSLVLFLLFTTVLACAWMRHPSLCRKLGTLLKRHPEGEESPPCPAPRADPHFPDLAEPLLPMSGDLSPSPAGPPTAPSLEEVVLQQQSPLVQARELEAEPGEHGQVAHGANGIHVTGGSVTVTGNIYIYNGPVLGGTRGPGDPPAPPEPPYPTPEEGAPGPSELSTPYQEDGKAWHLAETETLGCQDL

[2] = biological target: T1, human LTBR on cells (endogenous on HUVEC, HT29, primary human fibroblasts and moDC; LTBR-expressing HEK293) (human, UniProt P36941 31-435); experiment: cell-based or functional assay
T1 sequence (P36941 31-435 limits assumed): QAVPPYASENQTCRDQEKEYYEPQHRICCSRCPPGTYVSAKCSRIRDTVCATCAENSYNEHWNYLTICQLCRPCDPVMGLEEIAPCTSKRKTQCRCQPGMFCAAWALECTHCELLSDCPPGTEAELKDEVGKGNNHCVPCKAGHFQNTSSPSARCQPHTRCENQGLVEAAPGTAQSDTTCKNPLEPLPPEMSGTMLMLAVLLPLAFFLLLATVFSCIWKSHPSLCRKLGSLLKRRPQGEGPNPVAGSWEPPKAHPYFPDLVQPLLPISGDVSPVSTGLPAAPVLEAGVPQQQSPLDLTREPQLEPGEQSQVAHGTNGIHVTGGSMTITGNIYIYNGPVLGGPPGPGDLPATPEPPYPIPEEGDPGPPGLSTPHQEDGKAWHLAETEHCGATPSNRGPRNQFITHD

[3] = biological target: cynomolgus monkey LTBR on primary cynomolgus monkey fibroblasts (cynomolgus monkey, UniProt P36941 1-435 (human entry)); experiment: cell-based or functional assay
cynomolgus monkey LTBR on primary cynomolgus monkey fibroblasts, sequence (P36941 other isoform, or with tags, fused parts or gaps limits assumed): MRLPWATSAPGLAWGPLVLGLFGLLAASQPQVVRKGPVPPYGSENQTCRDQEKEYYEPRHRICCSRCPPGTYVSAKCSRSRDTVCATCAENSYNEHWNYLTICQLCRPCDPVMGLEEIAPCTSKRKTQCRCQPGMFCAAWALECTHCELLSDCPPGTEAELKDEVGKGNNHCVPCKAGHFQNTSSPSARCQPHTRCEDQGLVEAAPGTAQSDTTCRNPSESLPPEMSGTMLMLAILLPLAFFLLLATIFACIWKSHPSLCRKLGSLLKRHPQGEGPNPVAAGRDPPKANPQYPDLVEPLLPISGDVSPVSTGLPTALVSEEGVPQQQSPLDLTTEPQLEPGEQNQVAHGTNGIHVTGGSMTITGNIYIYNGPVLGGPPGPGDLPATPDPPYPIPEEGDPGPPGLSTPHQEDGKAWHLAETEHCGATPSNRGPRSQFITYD

[4] = biological target: T1, human LTBR on cells (endogenous on …); experiment: flow cytometry with AF647-labeled antibody on HUVEC (endogenous human LTBR), 1.5 hours on ice
Procedure: (§1) Endogenous human LTBR binding: 1E01 binding to endogenous LTBR on human endothelial cells (human umbilical vein endothelial cells (HUVEC)) and tumor cells (HT29 human colorectal carcinoma cells) was assessed in a flow cytometry-based assay using AF647-labeled antibody and Quantbrite™ beads. Cells were incubated with antibody for 1.5 hours on ice prior to endpoint analysis. Results confirmed the binding of 1E01 to endogenous human LTBR.

[5] = biological target: T1, human LTBR on cells (endogenous on …); experiment: flow cytometry with AF647-labeled antibody on HT29 cells (endogenous human LTBR), 1.5 hours on ice
Procedure: as §1

human LTBR protein = biological target: T2, human LTBR protein (human, UniProt P36941 31-227, limits assumed); experiment: not stated at this place (SPR by the heading before paragraph 293, where the value is repeated); human LTBR
T2 construct: Protein used for the KD, binning and crystallization; In the crystal the entire extracellular domain was ordered; also called lymphotoxin beta receptor; TNFR3
T2 sequence (P36941 31-227 limits assumed): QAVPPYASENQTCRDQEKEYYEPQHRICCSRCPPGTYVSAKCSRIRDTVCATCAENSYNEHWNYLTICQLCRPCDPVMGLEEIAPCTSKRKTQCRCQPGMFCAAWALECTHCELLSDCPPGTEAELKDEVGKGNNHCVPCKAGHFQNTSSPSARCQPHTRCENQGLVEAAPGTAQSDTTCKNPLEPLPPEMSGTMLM

Row | Binder | NFkB Activation, EC50 (ug/mL), CT26 hEC-mTM-mIC NFkB luciferase reporter cells [1] | CXCL10 Release, EC50 (ug/mL), primary human dermal fibroblasts [2] | CXCL10 Release, EC50 (ug/mL), primary cyno fibroblasts [3] | EC50 [4] | EC50 [5] | Kd (human LTBR protein)
1 | B1 | 0.00173 µg/mL | 0.00231 µg/mL | 0.00902 µg/mL | 76 ng/mL | 73 ng/mL | 
2 | B2 |  |  |  |  |  | 115 nM
